# * marks the point of attachment. Myristoyl = CCCCCCCCCCCCCC(=O)*
# Tests used:
# Type in all cases: cell-based
# [1] = target: T1, TRPA1 (Mus musculus, UniProt Q704Y3+Q8BLA8); assay: Calcium imaging of DRG neurons, response to mustard oil (MO); details: peptide 200 nM pretreatment; 10 μM MO; IB4-negative DRG neurons
# T1 construct: endogenous in cells; host or cells: primary mouse DRG neurons
# Protocol: Calcium imaging assays were performed as previously described (Liu et al., 2009). Cells were loaded with 2 μM fura 2-acetomethoxy ester (Molecular Probes) for 30 min in the dark at room temperature or for 45 minutes at 37° C. for DRG and cell lines, respectively. After washing, cells were imaged at 340 and 380 nm excitation to detect intracellular free calcium under a fluorescent microscope (Nikon Eclipse TE2000-S) and Lambda 10B shutter (Sutter Instrument). The cells were bathed in calcium imaging buffer (pH 7.45, 130 mM NaCl, 3 mM KCl, 2.5 mM CaCl2, 10 mM HEPES, 10 mM glucose, 1.2 mM NaHCO3, with sucrose to increase osmolarity to 290 mOsm). […] Images were processed and analyzed with NIS-Elements BR 2.30 software (Nikon). […] The data was analyzed with the experimenter blinded to the genotypes or constructs transfected.
# DRG from 3 to 4-week old mice were collected in cold DH10 medium (90% DMEM/F-12, 10% FBS, 100 U/ml penicillin, and 100 μg/ml Streptomycin, Gibco) and treated with enzyme solution in HBSS containing collagenase (1.65 mg/mL, Worthington CLS I) and dispase (3.55 mg/mL, GIBCO 17105-041) at 37° C. for 30 minutes. […] This efficiency was determined by mCherry(+) divided by total number of cells in the bright fields. […]
# [2] = test system: T2, TRPA1; assay: MO-gated whole-cell voltage clamp in CHO cells expressing TRPA1+TRPV1; details: Vh=-60 mV; TRPA1+TRPV1+Tmem100-3Q (1:1:4) CHO cells
# T2 construct: MO (10 μM)-evoked Ca2+ influx; other: TRPA1+TRPV1+Tmem100-3Q (1:1:4) CHO cells; MO (10 μM)-gated whole-cell current density; other: Vh=-60 mV; TRPA1+TRPV1+Tmem100-3Q (1:1:4) CHO cells; MO (10 μM)-induced single-channel activity (NPo); co-expressed with TRPA1+TRPV1 (1:1:4) in CHO cells
# Protocol: Recordings were made in cell-attached single-channel or whole-cell voltage clamp configurations at 22-24° C. from the somata of small-to-medium mouse DRG neurons (15-35 pF) or CHO cells. For whole-cell configuration, holding potential (Vh) is −60 mV. Data were acquired and analyzed using an Axopatch 200B amplifier and pCLAMP9.0 software (Molecular Devices, Sunnyvale, Calif.). Borosilicate pipettes (Sutter, Novato, Calif.) were pulled and polished to resistances of 3-5 MΩ (in whole-cell and single-channel pipette solutions). Access resistance (Rs) was compensated (40-80%) when appropriate up to the value 7-10 MΩ for whole-cell configuration. Whole-cell recording data were filtered at 0.5 kHz and sampled at 2 kHz. Single-channels currents were filtered with an 8-pole, low pass Bessel filter at 0.1 kHz and sampled at 0.5 kHz, since dwelling time (τ) of the TRPA1 and TRPV1 single-currents were >0.5 sec. Whole-cell recorded data were rejected when Rs changed >20% during recording, leak currents were >100 pA, or input resistance was <200 MΩ.
# Standard external solution (SES) for whole-cell patch recording contained (in mM): 140 NaCl, 5 KCl, 2 CaCl2, 1 MgCl2, 10 D-glucose and 10 HEPES, pH 7.4. Vehicle, which is 0.01% DMSO, was added to external solutions. […] The baseline activities of the cells were recorded for 1-2 min prior drug applications. […]
# [3] = test system: TRPA1; assay: Calcium imaging of HEK293T cells expressing TRPA1 and TRPV1 (MO or CA); details: HEK293T TRPA1+TRPV1 with Tmem100
# Protocol: Calcium imaging assays were performed as previously described (Liu et al., 2009). Cells were loaded with 2 μM fura 2-acetomethoxy ester (Molecular Probes) for 30 min in the dark at room temperature or for 45 minutes at 37° C. for DRG and cell lines, respectively. After washing, cells were imaged at 340 and 380 nm excitation to detect intracellular free calcium under a fluorescent microscope (Nikon Eclipse TE2000-S) and Lambda 10B shutter (Sutter Instrument). The cells were bathed in calcium imaging buffer (pH 7.45, 130 mM NaCl, 3 mM KCl, 2.5 mM CaCl2, 10 mM HEPES, 10 mM glucose, 1.2 mM NaHCO3, with sucrose to increase osmolarity to 290 mOsm). The reagents and buffers were applied through a gravity perfusion system at a rate of […], including mustard oil (Sigma 377430), cinnamaldehyde (Sigma C80687), menthol (Sigma M2780), and capsaicin (Sigma M2028). Cells with high baseline 340/380 values (>1.5) were excluded for analysis. For DRG neurons, IB4 staining was performed in the chamber with the dilution of 1:200 (Molecular Probes 121412) for 160 seconds before washing off at the end of each test. Images were processed and analyzed with NIS-Elements BR 2.30 software (Nikon). A responsive cell was defined as one that with greater than a 20% increase in the 340/380 ratio above the baseline. Intracellular calibration for calcium was performed as previously described (Akopian et al., 2007). The data was analyzed with the experimenter blinded to the genotypes or constructs transfected.
# DRG from 3 to 4-week old mice were collected in cold DH10 medium (90% DMEM/F-12, 10% FBS, 100 U/ml penicillin, and 100 μg/ml Streptomycin, Gibco) and treated with enzyme solution in HBSS containing collagenase (1.65 mg/mL, Worthington CLS I) and dispase (3.55 mg/mL, GIBCO 17105-041) at 37° C. for 30 minutes. After trituration and centrifugation, cells were resuspended in DH10, plated on glass coverslips coated with poly-D-lysine (0.5 mg/ml, Stoughton, Mass.) and laminin (10 μg/ml, Invitrogen), and cultured overnight in an incubator at 37° C. The neurons were tested within 24 hours. HEK293T, COS-7, and CHO cells were cultured in a medium consisting of 90% DMEM, 10% FBS, 100 U/mL penicillin, and 100 μg/ml Streptomycin. GlutaMAX (Gibco 35050-061) was also added for CHO cells. For calcium imaging, the cells were plated on glass coverslips coated with poly-D-lysine (0.5 mg/ml, Stoughton, Mass.). In the HEK cell studies the denominator is the cells expressing both TRPA1, TRPV1, and the designated constructs (i.e. Tmem100 or Tmem100-3Q mutant). mCherry:TRPV1:Tmem100 was transfected in 1:8:8 ratio into TRPA1 stable cell line (obtained from N. Tigue from GlaxoSmithKline) and used mCherry as the marker for the cells expressing the constructs 18 hours after transfection with Lipofectamine 2000. The transfection efficiency for Tmem100+TRPV1+TRPA1 triple-positive cells is 27±3%. This efficiency was determined by mCherry(+) divided by total number of cells in the bright fields.
# The sequence from the last 28 amino acids of the C-terminus of the Tmem100-3Q mutant protein was synthesized and myristoylated at its N-terminus (myr-[…]-COOH) (SEQ ID NO: 8) by Twentyfirst Century Biochemicals. […] For the calcium imaging assay, the peptides were added to the calcium imaging buffer with a final concentration of 200 nM and incubated for at least […] at room temperature. For the mice behavioral assays, the peptides (5 μL, 2 mM) were injected subcutaneously in the hindpaw at least 30 minutes before testing. For the rat behavior assays, human T100-3Q (h-T100), a palmitoylated cell permeable peptide mutated based on the C terminus of human sequence in Tmem100, was applied. The sequence is Palmitoyl-[…]-COOH (SEQ ID NO: 7).
# T1 sequence (Q8BLA8 whole entry): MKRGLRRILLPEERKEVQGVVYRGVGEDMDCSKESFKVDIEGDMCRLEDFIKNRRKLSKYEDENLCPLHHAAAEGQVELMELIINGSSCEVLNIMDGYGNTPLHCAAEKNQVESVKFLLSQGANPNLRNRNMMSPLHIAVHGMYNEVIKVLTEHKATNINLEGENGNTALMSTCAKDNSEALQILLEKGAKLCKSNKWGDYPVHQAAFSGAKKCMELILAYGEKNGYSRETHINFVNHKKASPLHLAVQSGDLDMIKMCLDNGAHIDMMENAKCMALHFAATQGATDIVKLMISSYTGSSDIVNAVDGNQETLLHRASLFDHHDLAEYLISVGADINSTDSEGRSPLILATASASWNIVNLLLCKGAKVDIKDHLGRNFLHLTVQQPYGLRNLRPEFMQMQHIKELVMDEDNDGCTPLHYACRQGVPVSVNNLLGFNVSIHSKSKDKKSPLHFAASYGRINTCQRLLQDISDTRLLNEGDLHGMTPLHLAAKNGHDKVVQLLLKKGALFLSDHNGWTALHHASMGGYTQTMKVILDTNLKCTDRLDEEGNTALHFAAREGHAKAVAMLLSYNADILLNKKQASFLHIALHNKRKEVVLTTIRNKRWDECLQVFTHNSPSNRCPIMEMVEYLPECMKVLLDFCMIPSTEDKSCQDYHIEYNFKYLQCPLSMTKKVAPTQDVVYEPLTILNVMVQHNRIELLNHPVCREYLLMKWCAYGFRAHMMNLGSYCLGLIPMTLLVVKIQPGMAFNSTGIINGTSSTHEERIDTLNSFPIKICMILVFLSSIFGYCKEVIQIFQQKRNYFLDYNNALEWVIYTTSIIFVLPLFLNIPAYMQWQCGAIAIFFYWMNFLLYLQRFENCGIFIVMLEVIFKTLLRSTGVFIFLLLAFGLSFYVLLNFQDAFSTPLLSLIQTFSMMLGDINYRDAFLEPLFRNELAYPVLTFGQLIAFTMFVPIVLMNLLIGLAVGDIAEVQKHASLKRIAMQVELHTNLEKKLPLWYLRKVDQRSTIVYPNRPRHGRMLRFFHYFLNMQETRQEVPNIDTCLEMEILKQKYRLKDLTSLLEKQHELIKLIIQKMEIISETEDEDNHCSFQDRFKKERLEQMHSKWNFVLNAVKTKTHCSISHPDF
# T1 sequence (Q704Y3 whole entry): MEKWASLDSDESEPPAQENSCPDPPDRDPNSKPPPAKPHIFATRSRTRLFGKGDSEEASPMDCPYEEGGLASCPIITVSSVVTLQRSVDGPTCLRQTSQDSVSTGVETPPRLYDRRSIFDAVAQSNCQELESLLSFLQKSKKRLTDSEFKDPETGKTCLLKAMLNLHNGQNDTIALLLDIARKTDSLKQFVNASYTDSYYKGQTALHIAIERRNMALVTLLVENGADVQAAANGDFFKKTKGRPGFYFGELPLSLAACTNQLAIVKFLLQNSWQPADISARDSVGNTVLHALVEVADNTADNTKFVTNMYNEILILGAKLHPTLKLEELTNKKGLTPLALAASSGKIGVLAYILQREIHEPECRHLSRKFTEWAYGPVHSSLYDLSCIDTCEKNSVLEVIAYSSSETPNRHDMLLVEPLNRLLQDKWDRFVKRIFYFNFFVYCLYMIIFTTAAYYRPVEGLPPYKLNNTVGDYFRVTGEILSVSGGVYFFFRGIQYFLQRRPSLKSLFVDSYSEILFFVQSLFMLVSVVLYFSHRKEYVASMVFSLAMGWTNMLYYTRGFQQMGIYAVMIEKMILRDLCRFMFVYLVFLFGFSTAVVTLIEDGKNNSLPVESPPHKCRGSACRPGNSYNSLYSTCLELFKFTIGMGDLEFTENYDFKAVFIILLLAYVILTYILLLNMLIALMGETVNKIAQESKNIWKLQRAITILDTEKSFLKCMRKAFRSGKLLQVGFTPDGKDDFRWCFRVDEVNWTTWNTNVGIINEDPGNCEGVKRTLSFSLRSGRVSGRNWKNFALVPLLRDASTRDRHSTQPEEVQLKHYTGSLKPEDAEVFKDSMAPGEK
molecule,measurement,setting,value
myr-QRVLEQVLQNWSRRANVKQAQKFQVKCT-COOH (Myristoyl-QRVLEQVLQNWSRRANVKQAQKFQVKCT-OH; SMILES CCCCCCCCCCCCCC(=O)N[C@@H](CCC(N)=O)C(=O)N[C@@H](CCCNC(=N)N)C(=O)N[C@H](C(=O)N[C@@H](CC(C)C)C(=O)N[C@@H](CCC(=O)O)C(=O)N[C@@H](CCC(N)=O)C(=O)N[C@H](C(=O)N[C@@H](CC(C)C)C(=O)N[C@@H](CCC(N)=O)C(=O)N[C@@H](CC(N)=O)C(=O)N[C@@H](Cc1c[nH]c2ccccc12)C(=O)N[C@@H](CO)C(=O)N[C@@H](CCCNC(=N)N)C(=O)N[C@@H](CCCNC(=N)N)C(=O)N[C@@H](C)C(=O)N[C@@H](CC(N)=O)C(=O)N[C@H](C(=O)N[C@@H](CCCCN)C(=O)N[C@@H](CCC(N)=O)C(=O)N[C@@H](C)C(=O)N[C@@H](CCC(N)=O)C(=O)N[C@@H](CCCCN)C(=O)N[C@@H](Cc1ccccc1)C(=O)N[C@@H](CCC(N)=O)C(=O)N[C@H](C(=O)N[C@@H](CCCCN)C(=O)N[C@@H](CS)C(=O)N[C@H](C(=O)O)[C@@H](C)O)C(C)C)C(C)C)C(C)C)C(C)C) [scrambled],percentage of DRG neurons responding to MO,[1],12±1.3%
"Tmem100-3Q mutant (full-length, mouse) (protein) MTEESTKENLGAPKSPTPVTMEKNPKREVVVTTGPLVSEVQLMAATGGAELSCYRCIIPFAVVVFITGIVVTAVAYSFNSHGSIISIFGLVLLSSGLFLLASSALCWKVRQRNKKVQQQESQTALVVNQRCLFA",MO (10 μM)-gated whole-cell current density,[2],39.16±12.5 pA/pF
"Tmem100: 134-amino acid two-transmembrane protein, regulator of TRPA1 (SEQ ID NO: 1/2), expressed in cells (protein, listed as Homo sapiens, listed as Mus musculus) chain 1: MTEEPIKEILGAPKAHMAATMEKSPKSEVVITTVPLVSEIQLMAATGGTELSCYRCIIPFAVVVFIAGIVVTAVAYSFNSHGSIISIFGLVVLSSGLFLLASSALCWKVRQRSKKAKRRESQTALVANQRSLFA chain 2: MTEESTKENLGAPKSPTPVTMEKNPKREVVVTTGPLVSEVQLMAATGGAELSCYRCIIPFAVVVFITGIVVTAVAYSFNSHGSIISIFGLVLLSSGLFLLASSALCWKVRQRNKKVKRRESQTALVVNQRCLFA",percentage of cells responsive to MO,[3]; 100 nM MO,20%
same,percentage of cells responsive to CA,[3]; 5 μM CA,30%

# Reference: patent US11066455B2, “Tmem100 peptides and variants thereof and their use in treating or preventing diseases or conditions” (The Johns Hopkins University, priority 2014, dated 2021)
